We go through six molecules from US20240352105A1, “COMPOSITIONS AND METHODS FOR NEUTRALIZING ANTIGENS” (PACAGEN, INC, priority 2023, published 2024).

The labels stand for the following.
B1: SDAB22110-4-3-E05: anti-Fel d1 VHH clone, SEQ ID NO: 55 (protein)
VHH: QVQLVESGGGLVQPGGSLRLSCVGSGFTFSQYAMRWYRQVPGKARELVAAISRSGDFMYYADSVKGRFTISRDNVKSAVILQMNSLKPEDTAVYYCYGQATISDTLWGQGTQVTVSS
B2: SDAB22110-4-3-H02: anti-Fel d1 VHH clone, SEQ ID NO: 57 (protein)
VHH: QLQLVESGGGLVQPGGSLRLSCEASGFTFKYYTMSWYRQAPGKERELVATITNGDRTNYADSVKGRFTISRDNAKNTLYLQMNSLKPYDTAVYYCNRHLPLLQIWGQGTQVTVSS
B3: SDAB22110-3-2-H08: anti-Fel d1 VHH clone, SEQ ID NO: 53 (protein)
VHH: QVQLVESGGGLVQPGGSLRLSCAASGFTFSRKGMSWYRQVPGKEREWVARIYSTGEKTDYADSVKGRFTISRDNAKNMVYLDMNSLKPEDTAVYYCKAWGYEYWNQGTQVTVSS
B4: SDAB22110-4-3-G08: anti-Fel d1 VHH clone, SEQ ID NO: 56 (protein)
VHH: DVQLVESGGGLVQPGGSLRLSCAASGFTFSLYYMSWYRQVPGKERELVATITSGTHATTYADSVKGRFTISRDNAKNTVSLQMNSLKREDTGVYYCKRTNAGQDPWGQGTQVTVSS
B5: SDAB22110-4-3-B02: anti-Fel d1 VHH clone, SEQ ID NO: 54 (protein)
VHH: QVQLVESGGGLVQPGGSLRLSCVASGFTFSFYTMEWYRQAAGKQRELVAGLTASGTTHYADSAKGRFTISRDNAWNTVFLQMNGLKPEDTAVYYCNAYSGYRDYWGQGTQVTVSL
B6: SDAB22110-1-1-E4: anti-Fel d1 VHH clone, SEQ ID NO: 51 (protein)
VHH: QLQLVESGGGLVQPGGSLRLSCTASGFTFSTAGTSWYRQSPGKARKLVAELSRIGGIANYADSVKGRFTISRDNTRNTVYLQMNSLKPEDTAVYYCKVVTNRNYGFTYWGQGTQVTVSS

The target in the first series is T1, Fel D1 (Felis catus, UniProt P30438).
T1 construct: made in house; host or cells: chemically synthesized peptides
Nature of the series: ELISA binding assay of anti-Fel d1 VHH clones on Fel D1 epitopes. Particulars: Epitope Recognized AKMTEEDKENALS (SEQ ID NO: 60). The arrangement: species or system cat. As for the experimental part: 2 microgram per milliliter (μg/mL) target antigen is coated in a 96-well plate and ELISA assay is performed after incubation with candidate VHHs. The binding EC50 of each clone is calculated using Prism GraphPad. The positive control antibody is involved as an internal control.
Four distinct epitopes of Fel D1 were selected to be used for further identification. Peptides were synthesized for the four epitopes for VHH identification.
Isolated VHH clones were further validated by performing an ELISA assay as described in Example 1. Binding results are shown in FIG. 15B-15D for the epitope of SEQ ID NO: 61. Binding results are shown in FIG. 16 for the epitope of SEQ ID NO: 59. Binding results are shown in FIG. 17A-17E for the epitope of SEQ ID NO: 60. Binding results are shown in FIG. 18 for the epitope of SEQ ID NO: 58.
For the molecule B1, the EC50 – broadly, the concentration giving half of the maximal effect – is 1.719 µg/mL.
Still for that read-out and setting: the value for B2 was 12.940 µg/mL; that for B3 was 5.024 µg/mL; that for B4 was 2.215 µg/mL.
Still for that read-out and setting: the value for B5 was 12.200 µg/mL.

Staying with this series, now noted: Epitope Recognized ENARILKNCVDAKM (SEQ ID NO: 61).
In turn, B6 yielded an EC50 of 3.305 µg/mL.

Tested on in a further series: not listed separately
Nature of the series: Thermostability (Tm, Tonset, Tagg) by Nanotemper DSF. The class given is physicochemical. The arrangement: key to Tm2 / Tagg / Tm1 / Tm / Tm3 / Tonset / Tonset ø (mean) / Tagg ø (mean): temperatures in °C. Particulars: Average of two replicates; anti-Fel d1 VHH. The method, boiled down:
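Isolated VHH clones were heated from 20 °C to 95 °C at 1 °C/min using DSF. Tm, Tonset and Tagg were derived from the thermal curves. Where several melting transitions occurred, each was reported in order (Tm1, Tm2, etc.).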
For the molecule B6, the “Tagg ø (mean)” value is 39.61 and the “Tonset ø (mean)” value was 40.64.
The matching figures for B1: 40.93 and 35.67.
For the molecule B2, the “Tagg ø (mean)” value amounted to 42.29 and the “Tonset ø (mean)” value was 47.54.
In the same order, the values of B3 are 42.30 and 37.18.
For the molecule B4, the “Tagg ø (mean)” value is 31.74; the “Tm ø (mean), first melting point (Tm1)” value is given as 37.85,; the “Tonset ø (mean)” value is 27.92.
For B5, the “Tagg ø (mean)” value is on record as 35.68 and the “Tonset ø (mean)” value is recorded as 33.78.

The same series, now with this note: Average of two replicates; anti-Fel d1 VHH; in °C (unit assumed).
On to B6, for which the “Tm ø (mean), first melting point (Tm1)” value was determined as 50.69.
For B1, the “Tm ø (mean), first melting point (Tm1)” value was determined as 46.83.
Regarding B2, the “Tm ø (mean), first melting point (Tm1)” value is listed as 58.58.
In the case of B3, the “Tm ø (mean), first melting point (Tm1)” value turned out to be 47.50.
For the molecule B4, the “Tm ø (mean), second melting point (Tm2)” value was determined as 47.65 and the “Tm ø (mean), third melting point (Tm3)” value is 62.92.
With B5, the “Tm ø (mean), first melting point (Tm1)” value is given as 42.43.

Staying with this series, now noted: Replicate 1.
Molecule B6 returned a Tagg of 39.62 and a Tonset of 40.60.
Molecule B1 yielded a Tagg of 40.93 and a Tonset of 35.61.
The matching figures for B2: 42.24 and 47.33.
Regarding B3, the Tagg came to 42.41 and the Tonset is listed as 37.03.
For the molecule B4, the Tagg turned out to be 31.71; the “Tm, first melting point (Tm1)” value is recorded as 37.77,; the Tonset came to 27.93.
On to B5, for which the Tagg was found to be 35.55 and the Tonset is 33.78.

The same series, now with this note: Replicate 1; in °C (unit assumed).
As for B6, the “Tm, first melting point (Tm1)” value worked out at 50.73.
For the molecule B1, the “Tm, first melting point (Tm1)” value was found to be 47.02.
On to B2, for which the “Tm, first melting point (Tm1)” value came out at 58.60.
Same read-out and setting: as for B3, the figure is 47.46.
In the case of B4, the “Tm, second melting point (Tm2)” value was 47.76 and the “Tm, third melting point (Tm3)” value was determined as 61.85.
B5: the “Tm, first melting point (Tm1)” value is 42.52.

Still in this series, the particulars now being: Replicate 2.
The molecule B6 came in with a Tagg of 39.61 and a Tonset of 40.64.
B1: the Tagg is 40.93 and the Tonset is reported as 35.73.
The molecule B2 gave a Tagg of 42.35 and a Tonset of 47.76.
In the same order, the values of B3 are 42.19 and 37.34.
B4: the Tagg was determined as 31.77; the “Tm, first melting point (Tm1)” value is 37.92,; the Tonset was 27.92.
B5 had a Tagg of 35.82 and a Tonset of 33.78.

Still in this series, the particulars now being: Replicate 2; in °C (unit assumed).
As for B6, the “Tm, first melting point (Tm1)” value is 50.66.
Take B1: the “Tm, first melting point (Tm1)” value was 46.64.
With B2, the “Tm, first melting point (Tm1)” value was determined as 58.57.
On to B3, for which the “Tm, first melting point (Tm1)” value is 47.53.
As for B4, the “Tm, second melting point (Tm2)” value is 47.53 and the “Tm, third melting point (Tm3)” value is recorded as 62.92.
As to B5, the “Tm, first melting point (Tm1)” value stood at 42.34.

Staying with this series, now noted: anti-Fel d1 VHH.
Take B6: the Tagg is listed as 42.78 and the “aggregates” value was “Possible”.
B1: the Tagg was found to be 31.74 and the “aggregates” value is “Possible”.
B2 had a Tagg of 42.30.
The same measure, in the same setting: the value for B3 was 35.68.
Consider B4, for which the Tagg stood at 42.29.
Turning to B5, the Tagg is listed as 40.93.

The series is the same for the next values; noted with them: anti-Fel d1 VHH; first melting point; in °C (unit assumed).
On to B6, for which the Tm1 is on record as 41.13.
As for B1, the Tm1 turned out to be 37.85.

The same series, now with this note: anti-Fel d1 VHH; second melting point; in °C (unit assumed).
Turning to B6, the Tm2 stood at 52.88.
Same read-out and setting: as for B1, the figure is 47.65.

The same series, now with this note: anti-Fel d1 VHH; single melting point.
Regarding B2, the Tm came out at 47.50.

The series is the same for the next values; noted with them: anti-Fel d1 VHH; single melting point; in °C (unit assumed).
As to B3, the Tm was 42.43.
Still for that read-out and setting: as for B4, the figure is 58.58; as for B5, 46.83.

The series is the same for the next values; noted with them: anti-Fel d1 VHH; third melting point; in °C (unit assumed).
On to B1, for which the Tm3 was 62.39.
